± gives the standard deviation of the averaged measurements.
System: ATP
Test: switch fluorescence ratio, 500 uM ATP over buffer (Cy3 cluster intensity, sum of 5 cycles each) (fold (ratio)); higher = stronger signal-on switching upon ATP binding; sequences stand for … in TCGTCGGCAGCGTCAGATGTGTATAAGAGACAGTTTTTTTTTTTTTTTTTTTTTTTTT…TC
Conditions: aptamer strand: ATP DNA aptamer (quencher-CACCTGGGGGAGTATTGCGGAGGAAGG + anchor), 100 nM annealed; ATP concentration: 500 uM
How it was run: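 The quencher-labelled ATP aptamer, at 100 nM, was annealed to Cy3-labelled switching-strand clusters on a modified Illumina MiSeq flow-cell. The clusters were imaged in selection buffer, then after 15 min with 500 uM ATP at 22 °C, and this buffer/ATP cycle ran five times with NaOH stripping and re-annealing between runs. Per-cluster fluorescence ratios, summed target-cycle over summed buffer-cycle Cy3 intensity, were averaged per switch-domain sequence. Clusters outside 100-1000 RFU were excluded.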
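Note: ATP exposure 15 min at 22 °C before imaging.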

| Sequence | switch fluorescence ratio |
| --- | --- |
| AGTTTCGCTA | 0.992 ± 0.024 |
| AAGGTAGGGG | 0.986 ± 0.018 |
| AGCATACGTT | 1.16 ± 0.051 |
| AAAAGGTGCC | 1.13 ± 0.024 |
| TGGGGGGTTT | 1 ± 0.04 |
| TGGCTGGGTA | 0.983 ± 0.043 |
| GGAACCTCTG | 1.012 ± 0.0037 |
| CTATGGGATT | 0.983 ± 0.022 |
| GGGGCGGTGC | 1.03 ± 0.023 |
| GACAACGGAT | 1.02 ± 0.03 |
| TCGGAGCTTG | 1.16 ± 0.064 |
| TCTCAGAGTA | 1 ± 0.012 |
| GATTCTTGTC | 1.01 ± 0.035 |
| CGTTCCCCCA | 1.355 ± 0.013 |
| TTTACTATGG | 0.9984 ± 0.0023 |
| TGGGACTTGG | 1.01 ± 0.018 |
| TTCATAGTGA | 0.95 ± 0.028 |
| TGGAAAAATG | 0.991 ± 0.031 |
| CGGGTATAGC | 0.996 ± 0.05 |
| GTGGTTACAG | 1.02 ± 0.011 |
| ACGGTGCTTG | 0.99 ± 0.015 |
| CTAGTGGGGA | 1.01 ± 0.017 |
| CCGGACAGGT | 1.13 ± 0.023 |
| GGGGATGTAG | 0.979 ± 0.026 |
| CAGAGCCAAC | 1.11 ± 0.016 |

| Sequence | switch fluorescence ratio |
| --- | --- |
| GTTAGTGCGA | 1.01 ± 0.037 |
| GGCTAGGGGT | 1.57 ± 0.022 |
| GCATGCGGTC | 1.01 ± 0.027 |
| AGCTTCTAAA | 0.976 ± 0.022 |
| GATATTGAGT | 0.9648 ± 0.0073 |
| CAATTATGTA | 0.963 ± 0.016 |
| GGACGGCGGG | 1 ± 0.034 |
| TAGCAGTTGG | 0.988 ± 0.02 |
| AATGACTCAT | 0.9808 ± 0.0049 |
| AAGGGGAAGT | 0.987 ± 0.038 |
| GTTTTGATGG | 1 ± 0.019 |
| TCGGTCAGTT | 0.971 ± 0.012 |
| CTAGGTTATG | 0.978 ± 0.01 |
| AGGTGATGGG | 1.04 ± 0.023 |
| ACGGGTTTTT | 0.999 ± 0.015 |
| CTGGGTTTCG | 0.974 ± 0.042 |
| GATGTGGTGC | 1.016 ± 0.0038 |
| TGTCAGTGCT | 1.015 ± 0.0066 |
| CGGTTTATAT | 0.99 ± 0.013 |
| GGGACGAATC | 1.006 ± 0.0041 |
| TAGGAGGTAC | 1.01 ± 0.054 |
| TGGGCGTCGG | 0.999 ± 0.032 |
| GTATGGGGGG | 0.985 ± 0.026 |
| CGTTAAACGT | 1.01 ± 0.036 |
| GGTGTAGATT | 1.07 ± 0.04 |

| Sequence | switch fluorescence ratio |
| --- | --- |
| GAAGGAGCAG | 0.944 ± 0.029 |
| GTCGCTTAGT | 0.973 ± 0.018 |
| TGAGGAAATG | 1 ± 0.037 |
| TTTTTCTAAC | 0.996 ± 0.016 |
| GATATCTCCT | 1.09 ± 0.011 |
| GCTGGGCGAT | 0.961 ± 0.032 |
| TATGCGTCGA | 0.979 ± 0.013 |
| ATAGCCCGGG | 0.986 ± 0.011 |
| ACTTTTGCTG | 0.983 ± 0.019 |
| CGGAGAAGGA | 0.98471 ± 0.00067 |
| TCTAACATGC | 1.15 ± 0.12 |
| CTACAGGGGG | 1.08 ± 0.018 |
| GCTCCATGGG | 1.02 ± 0.046 |
| ATACAACCTG | 1.106 ± 0.0065 |
| TTGTGCTTGT | 0.983 ± 0.019 |
| TAAAGATTTC | 1.01 ± 0.069 |
| TGGTCTAATG | 0.9791 ± 0.002 |
| GAGGGGGGCC | 1.01 ± 0.06 |
| TGCTGTAAGG | 1 ± 0.036 |
| GCCCGGATTT | 1 ± 0.047 |
| TTTAGGGGGG | 1.01 ± 0.099 |
| AAGGATAGGC | 1 ± 0.013 |
| TTAAGGGGAA | 1.06 ± 0.063 |
| TTTTTATTG | 1.02 ± 0.018 |
| ATTTTTGGCC | 1.02 ± 0.035 |

| Sequence | switch fluorescence ratio |
| --- | --- |
| CGGCGGCTTC | 1.01 ± 0.028 |
| ACCAAGGGTG | 1.135 ± 0.0042 |
| TGTTAGTCTA | 0.9884 ± 0.0052 |
| CGGGATGGCT | 0.996 ± 0.011 |
| ACGTTTTTGC | 1.02 ± 0.044 |
| GGGGGCCCTC | 0.985 ± 0.01 |
| TTTAGTCTCA | 1.017 ± 0.0089 |
| TGGAAATGCC | 1.07 ± 0.065 |
| GTTGGCAGGC | 1.03 ± 0.028 |
| GGCCGTGAGT | 0.996 ± 0.018 |
| GATATAGCTC | 0.999 ± 0.038 |
| CGGACAGGGA | 1.03 ± 0.035 |
| GTGAGGGGTG | 0.996 ± 0.032 |
| GGGTGTAGTG | 0.988 ± 0.024 |
| TATTCAGATA | 0.9773 ± 0.008 |
| TCATGGTATT | 1.01 ± 0.011 |
| TGGCGCCCTT | 1.01 ± 0.012 |
| AGTGGGAAGG | 0.956 ± 0.021 |
| CAGATCTGTA | 1.0087 ± 0.00071 |
| AGTCCTTATT | 0.977 ± 0.021 |
| TAATGATTTC | 0.992 ± 0.011 |
| AGGGATTAGT | 0.991 ± 0.022 |
| TGAGAAAGGA | 0.99 ± 0.028 |
| ACGGGCTTTA | 1.03 ± 0.026 |
| TAACGTAACA | 1.26 ± 0.068 |

| Sequence | switch fluorescence ratio |
| --- | --- |
| AAAACGCGCT | 0.965 ± 0.079 |
| TTTTACTAGA | 1.032 ± 0.0059 |
| TATAACTTAA | 1.03 ± 0.026 |
| TAGTACAGGC | 1.06 ± 0.015 |
| AAATTGGAAG | 1.05 ± 0.078 |
| GAGTGCTTAA | 0.971 ± 0.022 |
| TAGTTTTGTG | 1.01 ± 0.062 |
| AGGCGGTGGC | 1.02 ± 0.11 |
| GATCGTATGT | 0.9838 ± 0.0013 |
| GCGGACAGGA | 1 ± 0.029 |
| GCTATGTAGG | 1 ± 0.062 |
| AAATGATAGC | 1.016 ± 0.0037 |
| TTGCTATGGG | 0.978 ± 0.017 |
| AACTGCTGTA | 0.999 ± 0.02 |
| TGGGGATGTT | 1.01 ± 0.049 |
| TATAGGGGTT | 1.02 ± 0.061 |
| TGAAAAACAC | 1.12 ± 0.17 |
| TCTTTTAGGC | 1 ± 0.036 |
| TTGAGGACGT | 0.975 ± 0.045 |
| TTTTTCCGGC | 1.063 ± 0.0063 |
| CCTTAGGTAT | 1.011 ± 0.0094 |
| TGATTTCAGG | 0.982 ± 0.062 |
| CATGAAGGGG | 1.02 ± 0.015 |
| GCAAAACA | 1.3 ± 0.41 |
| GACAATTCTT | 1.006 ± 0.0096 |

| Sequence | switch fluorescence ratio |
| --- | --- |
| CGTTGTTGAA | 0.968 ± 0.036 |
| TTTAGTATGG | 1.02 ± 0.042 |
| TCCGAAAGGG | 1.052 ± 0.0062 |
| TTTGCAATG | 2.22 ± 1.6 |
| TTACTTGTGG | 0.988 ± 0.024 |
| AAAATGGGTA | 0.986 ± 0.034 |
| GTGTATGTTT | 1.01 ± 0.028 |
| GGTCCCGGGG | 1.05 ± 0.026 |
| CTGGCGGATT | 0.985 ± 0.05 |
| CGCCTCGAGG | 0.9786 ± 0.0027 |
| GCGAGCGGGT | 1 ± 0.016 |
| TCATAGTTCA | 1.03 ± 0.012 |
| GAGATGGGGC | 1.09 ± 0.1 |
| TGGTGCTGGG | 0.9733 ± 0.0066 |
| ACTATTTGCG | 0.991 ± 0.042 |
| TAACACATTT | 0.98 ± 0.059 |
| ATCGTTCCGC | 1.22 ± 0.03 |
| GTTGGGCCCA | 1 ± 0.016 |
| TTTTTTCCGG | 1.21 ± 0.17 |
| TGCCTAAGTA | 1.02 ± 0.018 |
| GTTGGATGGA | 0.9966 ± 0.0062 |
| CGAGCTCTCG | 1.002 ± 0.0075 |
| GTTGAGAGTT | 1.01 ± 0.015 |
| AAAATGGAGA | 0.983 ± 0.029 |
| CTGACTTTTT | 1.02 ± 0.016 |

| Sequence | switch fluorescence ratio |
| --- | --- |
| CCTGGGCGGT | 1.32 ± 0.031 |
| AGGAAGAAAG | 1.042 ± 0.0089 |
| AAGGTCATTA | 0.97235 ± 0.00041 |
| ATCGTCCCGA | 1.05 ± 0.039 |
| CAGTCGGTCA | 1.01 ± 0.032 |
| CTGATGTAGC | 1.21 ± 0.049 |
| CGTTATTCAC | 1.03 ± 0.036 |
| TGTAGGGGGC | 1.27 ± 0.39 |
| TGGGTGTAGC | 0.986 ± 0.011 |
| CAGGGGGAGG | 1.03 ± 0.048 |
| ACGGGTGACC | 1.03 ± 0.032 |
| TAGGGTATGT | 1.01 ± 0.018 |
| GGGGGAACGT | 1.05 ± 0.037 |
| ATGGCCGATA | 0.9537 ± 0.0027 |
| TAGGGACGCC | 1.031 ± 0.0046 |
| ATGATAGTAC | 1.04 ± 0.017 |
| AGTTCGGGCA | 0.998 ± 0.021 |
| ACCCGTAAGA | 1.22 ± 0.093 |
| ATTATATGAC | 1.06 ± 0.05 |
| AAGGGGTGAA | 0.989 ± 0.017 |
| TGAGATCGGC | 0.992 ± 0.042 |
| GAGGGATAAA | 1.003 ± 0.0018 |
| ATTTTTGTTT | 0.985 ± 0.023 |
| TTTCAGAGGG | 0.992 ± 0.011 |
| CAAGTGATAT | 1.05 ± 0.014 |

| Sequence | switch fluorescence ratio |
| --- | --- |
| CGGGAGTGTC | 0.89727 ± 0.00075 |
| CGTGTGATGT | 0.973 ± 0.03 |
| GGGCGCCTAA | 1 ± 0.046 |
| TTGCTGTTTC | 1 ± 0.067 |
| ATGGTCAGGC | 0.973 ± 0.019 |
| TGCTGTTGGA | 0.953 ± 0.011 |
| AATTAAAAAG | 0.975 ± 0.023 |
| ATGGGGTTGG | 1 ± 0.049 |
| TATATGGGTA | 0.982 ± 0.057 |
| TACCTGGTCG | 1.03 ± 0.041 |
| CATTGACATT | 1.06 ± 0.026 |
| TGGGGAGCCT | 1.03 ± 0.041 |
| CACATGCTGT | 0.995 ± 0.038 |
| GGGAGGGGTA | 1 ± 0.029 |
| AATATCTCTG | 1.02 ± 0.03 |
| ATAGGCGGAG | 0.965 ± 0.02 |
| ATGTAGAGGC | 0.987 ± 0.026 |
| AAGGGGTGTG | 0.998 ± 0.013 |
| CAGTAATATT | 1.06 ± 0.017 |
| GTTTTCGGGT | 1.01 ± 0.052 |
| GGGGGCCCTG | 0.98993 ± 0.0009 |
| ATGGAAAGAA | 0.974 ± 0.038 |
| ATATTTAGCG | 0.968 ± 0.016 |
| TGGGGATCGC | 0.983 ± 0.034 |
| GTTATTCGGT | 0.991 ± 0.023 |
